The target of this series is GmERF113 (Glycine max (soybean) cv. Suinong 10, UniProt I1ML94 1-260). Briefly: EMSA; EMSA as described by Liu et al. (2006); buffer, salt, pH and temperature not stated. The note with it: protein: recombinant. (In general: A gel shift assay detects complexes by their altered migration in electrophoresis.)
GmERF113, sequence (I1ML94 entry or part of it): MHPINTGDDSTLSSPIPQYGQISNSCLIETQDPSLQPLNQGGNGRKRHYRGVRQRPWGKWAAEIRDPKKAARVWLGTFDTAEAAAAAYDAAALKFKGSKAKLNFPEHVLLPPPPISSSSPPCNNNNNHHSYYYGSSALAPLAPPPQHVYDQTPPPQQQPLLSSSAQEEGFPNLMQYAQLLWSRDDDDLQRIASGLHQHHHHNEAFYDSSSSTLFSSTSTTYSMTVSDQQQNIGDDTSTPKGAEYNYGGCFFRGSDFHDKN

B1: GCC probe (GCC-box) (dsDNA)
DNA 1: ATCCATAAGAGCCGCCACTAAAATAAGACCGATCAA
DNA 2: TTGATCGGTCTTATTTTAGTGGCGGCTCTTATGGAT
With B1, the binding result was “binds”.

B2: mGCC probe (mutated GCC-box) (dsDNA)
DNA 1: ATCCATAAGATCCTCCACTAAAATAAGACCGATCAA
DNA 2: TTGATCGGTCTTATTTTAGTGGAGGATCTTATGGAT
Take B2: the binding result was “no binding”.

Values taken from article PMC5339286, “A Novel Soybean ERF Transcription Factor, GmERF113, Increases Resistance to Phytophthora sojae Infection in Soybean”.
